{"source": "paper PMC8498466", "proteins": {"B1": {"name": "LysO (LysON-HA) (Escherichia coli K-12) (protein)", "chain": "MFSGLLIILVPLIVGYLIPLRQQAALKVINQLLSWMVYLILFFMGISLAFLDNLASNLLAILHYSAVSITVILLCNIAALMWLERGLPWRNHHQQEKLPSRIAMALESLKLCGVVVIGFAIGLSGLAFLQHATEASEYTLILLLFLVGIQLRNNGMTLKQIVLNRRGMIVAVVVVVSSLIGGLINAFILDLPINTALAMASGFGWYSLSGILLTESFGPVIGSAAFFNDLARELIAIMLIPGLIRRSRSTALGLCGATSMDFTLPVLQRTGGLDMVPAAIVHGFILSLLVPILIAFFSA"}}, "substrate": "NCCSC[C@H](N)C(=O)O", "experiment": "cells, lysate or membranes", "details": "inside-out membrane vesicles energized with 0.25 mM ATP; 50 mM KCl, 10 mM MgSO4, valinomycin 0.25 uM; Thl 0.5-5 mM; Thl/H+ antiport (export direction)"}
{"protein": "B1", "values": [{"measurement": "Km", "result": 1500, "unit": "µM"}]}
